# According to PMC11153153, “Membraneless channels sieve cations in ammonia-oxidizing marine archaea” (Nature, 2024):
# Target: the molecule itself
# Experiment: cryo-EM structure; electron cryotomography and subtomogram averaging of the S-layer on intact N. maritimus cells; 3.3 Å at the centre of the hexamer, about 4.5 Å at the periphery
protein,measurement,value
"Nitrosopumilus maritimus S-layer protein Nmar_1547 (NmSLP) (natural protein, 17 N-glycans per monomer on asparagine residues followed by a threonine or serine at the +2 position (positions not given)) MAANANLFVSAENSQFDNYMSGPQVIEVVVIDSDINDTDEAKGEPDVTVNGKVLRMVQAVDGNWYGYFADRDQAQIADSTATTADSGLDFGVFCASSSGTAALGFSTTETDGIAIPITIANATATGNGTQTGSSSGGAITTTCAANTLDASTANGTINVVREAKDPVAASGSVSVGQIGLKNGTANSGPNWPFIQLYELNPTGNVVVQYNKGGGVQSTTLTFDTVDQFAELSLDRTVFPRVSQVHATITDLWLNIDPTDEDSWTFATNTKNTTSSFNVDTFYQVFDENGASGGSALTLRTTLSSLMCEDNCVLTLDVDAQSSGTPVVTIQDNGDSILTQLNASSNTNANNASAFGISTETAKLGTGSIPVTITEQGPNSGVFGTYDESDKSVLKITDNAKRGTSASLDYNETPQTILVGFSFASIDIQPVTDEWTSGQEIPVVIVDADQNKNSRADEDLDLNNPDVTLIPALRTGDPFTIDEGGTPSLIFTNGTNGDDSIFDTGAINNTSAGQVGNFTLNINVTRFSSATNITSTESIDTFSKRLISAQTANSSANFDVDFAIIDLGSATLETLKETVVDEDNTAVGFNFFNYDVRSLGADTVSIALLNTTGNILPWVNNDTRNVDKNNAILLVSNSTNSQAYVDLTNAVSDAVYGSTNTDSNVNIGFAMYFTGVGDLAAKEVIVMDFFSFGFTDDGVQSSERFANQIIRIEAEETGDNTSTFEGSLEYVMVNQINIQDAGTFSGITPIADDPSFIVIEDLTDEDAPRVNYNDLGADGVTTPVSDQEEAPSHSGVVSLNADSYKIADTVVITVEDLDLNVDSDLIDIFTVVSDNSKATDDAVGSATTQSLSFGELGRLLDVTFDDVIWSTPDGANNTATGNDSDTCSTELSNAGITDTGLGATGFTLVETGAATGVFVGDFQIPSFWCRVSDTTTTPYTYAGDEETTTGLDIEVNYVDFRDASGEIVEVGDSAGVRANTGSVSLDRTVYPVPFGTIADSSKAANAAPNGRSVFPIHATGITSTIDSTEELPTGDLTIHVRINDPDFDENPAGEDAMDQDNALKISVIRGSDSVVLGYAGASERTGKIDVGGNNGTISNIRSFGEMDEIAPDAGIFELDVNIKFTDGPASAQCNSHDTLYTALDGTTGKADTNRFDDGAASGQEYCILQGDILQVEYTDPADASGDANTVTDSATFDLRNGVLQSDKSVYIIGSDMILTLIEPDFDLDNDSAETYDLDLIEWDSDAATTTMGNKGVTGAAAAFDPEPTDFRETGDSTGIFQIVIEIPESLSNDKLERGEEIILEYTDWGPSGSDYVGDEDEDVNLTIYTSNFGATVELDQKVYSWTDKVYITIVAPDHNFDSDLVDEIGETDSDPIKVSTRGFDLDNYKLVETGTDTGIFTGEVILTGFTAHDADGDGNTGDATGTTSGSGPTDGLLATDDDDGLTVSFEFSEDETIVGSALIRWNIGEVQWLEASYPASGTGVVRVIDPDMNLDPEAVDNFEVDVWSDSDAGGIDLTVTETNEATGIFEGTVFFTTLDESSGHRLRVSEGDTVTAEYEDNTLPDPYTTADELDITATSLIGTVVPPLERAPAANLRTVDAFGNSLDSVSVDQQVQISADLANGQDREQSFAYLVQIQDANGVTVSLAWITGSLSSGQSFSPALSWIPTEAGTYTATAFVWESVDNPTALSPPVSTTVNVS",stoichiometry N,6
